In US20250376534A1 (ORNA THERAPEUTICS, published 2025):
Where no end group is shown, it is not given here.

Legend:
[1] = target: T1, BCMA CAR encoded by circular RNA formed from DNA Template H; experiment: flow cytometry, live T cells 24 h after electroporation with 50 ng circRNA per 0.1x10^6 T cells; second of two values
T1 construct: also called Construct H
From the text: (§1) Donor T cells were thawed and activated with anti-CD3/CD28 solutions. Three days after activation, the cells were washed. […] Circular RNAs were formed from DNA templates present in Table 28 and/or 30. The cells were given a commercially available soluble BCMA detection reagent containing R-phycoerythrin (PE) fluorophore (e.g., from AcroBiosystems, Delaware), anti-Whitlow PE detection reagent, or anti-G4S linker detection reagent (e.g., G4S-AF647).

[2] = target: T2, BCMA CAR encoded by circular RNA formed from DNA Template J; experiment: as above
T2 construct: also called Construct J
T2 sequence (chain, as listed by the source limits assumed): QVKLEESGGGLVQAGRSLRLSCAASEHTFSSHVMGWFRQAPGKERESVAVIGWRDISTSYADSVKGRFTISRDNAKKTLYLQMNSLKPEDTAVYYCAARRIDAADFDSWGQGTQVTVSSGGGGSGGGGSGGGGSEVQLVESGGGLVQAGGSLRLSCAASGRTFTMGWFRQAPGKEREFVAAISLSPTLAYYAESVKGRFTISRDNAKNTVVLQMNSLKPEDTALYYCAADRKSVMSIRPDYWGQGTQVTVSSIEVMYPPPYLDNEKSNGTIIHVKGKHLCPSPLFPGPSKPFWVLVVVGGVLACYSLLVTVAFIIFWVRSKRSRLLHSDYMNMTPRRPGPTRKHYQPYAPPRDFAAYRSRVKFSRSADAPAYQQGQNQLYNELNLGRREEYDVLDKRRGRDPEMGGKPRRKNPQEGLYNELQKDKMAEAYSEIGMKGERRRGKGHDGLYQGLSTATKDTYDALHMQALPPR
From the text: as §1

[3] = target: T3, CD19-CD28ζ CAR encoded by circular RNA formed from DNA Template F; experiment: as above
T3 construct: also called Construct F
T3 sequence (chain, as listed by the source limits assumed): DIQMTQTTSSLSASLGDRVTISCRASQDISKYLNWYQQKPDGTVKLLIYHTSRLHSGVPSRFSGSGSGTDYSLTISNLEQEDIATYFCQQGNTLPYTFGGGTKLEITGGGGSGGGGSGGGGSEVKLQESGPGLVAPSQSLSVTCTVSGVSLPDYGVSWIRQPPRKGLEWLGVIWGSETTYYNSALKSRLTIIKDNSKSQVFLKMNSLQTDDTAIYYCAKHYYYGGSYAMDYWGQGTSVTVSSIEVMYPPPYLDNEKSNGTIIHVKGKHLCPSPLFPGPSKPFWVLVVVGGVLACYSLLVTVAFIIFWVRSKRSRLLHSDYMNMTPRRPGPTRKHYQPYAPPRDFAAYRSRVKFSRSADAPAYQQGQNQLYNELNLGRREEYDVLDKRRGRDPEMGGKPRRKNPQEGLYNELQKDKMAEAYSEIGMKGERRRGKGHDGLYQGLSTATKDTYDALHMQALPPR
From the text: as §1

[4] = target: T4, BCMA-41BBζ CAR encoded by circular RNA formed from DNA Template A; experiment: as above
T4 construct: also called Construct A
T4 sequence (chain, as listed by the source): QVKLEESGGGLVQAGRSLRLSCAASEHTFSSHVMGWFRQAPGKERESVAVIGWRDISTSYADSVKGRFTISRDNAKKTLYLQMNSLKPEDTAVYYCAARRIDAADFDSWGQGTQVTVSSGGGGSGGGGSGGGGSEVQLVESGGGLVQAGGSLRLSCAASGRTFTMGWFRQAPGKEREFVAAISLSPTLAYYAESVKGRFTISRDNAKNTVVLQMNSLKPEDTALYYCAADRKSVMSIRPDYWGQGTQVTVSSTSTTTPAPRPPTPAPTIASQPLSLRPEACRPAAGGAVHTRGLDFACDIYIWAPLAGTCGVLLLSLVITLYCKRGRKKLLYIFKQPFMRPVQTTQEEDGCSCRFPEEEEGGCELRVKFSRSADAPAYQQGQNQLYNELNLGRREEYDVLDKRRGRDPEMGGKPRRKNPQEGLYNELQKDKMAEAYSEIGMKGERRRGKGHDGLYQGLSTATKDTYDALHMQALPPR
From the text: as §1

[5] = target: T5, BCMA CAR encoded by circular RNA formed from DNA Template I; experiment: as above
T5 construct: also called Construct I
T5 sequence (chain, as listed by the source limits assumed): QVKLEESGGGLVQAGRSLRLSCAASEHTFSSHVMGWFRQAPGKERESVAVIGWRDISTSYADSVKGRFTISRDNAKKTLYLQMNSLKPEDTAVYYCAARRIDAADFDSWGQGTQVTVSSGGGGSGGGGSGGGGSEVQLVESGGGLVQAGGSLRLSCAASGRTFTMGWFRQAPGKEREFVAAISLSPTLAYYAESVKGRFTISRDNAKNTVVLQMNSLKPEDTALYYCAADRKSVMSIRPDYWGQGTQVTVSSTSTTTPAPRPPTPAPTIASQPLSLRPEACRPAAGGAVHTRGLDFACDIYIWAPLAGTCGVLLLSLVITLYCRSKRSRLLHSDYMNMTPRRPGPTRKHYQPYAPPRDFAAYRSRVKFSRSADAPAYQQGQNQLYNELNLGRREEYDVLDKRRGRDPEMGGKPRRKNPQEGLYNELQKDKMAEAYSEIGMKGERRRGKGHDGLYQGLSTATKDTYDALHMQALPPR
From the text: as §1

[6] = target: T6, BCMA CAR encoded by circular RNA formed from DNA Template G; experiment: as above
T6 construct: also called Construct G
T6 sequence (chain, as listed by the source limits assumed): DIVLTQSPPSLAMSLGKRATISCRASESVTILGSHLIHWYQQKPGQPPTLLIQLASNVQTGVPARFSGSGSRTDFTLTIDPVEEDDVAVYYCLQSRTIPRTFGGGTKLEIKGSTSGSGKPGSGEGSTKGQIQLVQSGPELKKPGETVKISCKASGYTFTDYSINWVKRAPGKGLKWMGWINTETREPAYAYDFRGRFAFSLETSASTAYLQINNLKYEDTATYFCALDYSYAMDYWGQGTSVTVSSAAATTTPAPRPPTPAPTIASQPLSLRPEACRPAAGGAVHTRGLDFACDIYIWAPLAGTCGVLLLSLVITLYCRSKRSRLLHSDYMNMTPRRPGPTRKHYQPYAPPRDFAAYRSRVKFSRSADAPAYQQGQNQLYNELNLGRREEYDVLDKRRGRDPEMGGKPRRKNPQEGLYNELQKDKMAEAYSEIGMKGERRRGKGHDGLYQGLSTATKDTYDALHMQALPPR
From the text: as §1

[7] = target: T1, BCMA CAR encoded by circular RNA formed …; experiment: flow cytometry, live T cells 24 h after electroporation with 50 ng circRNA per 0.1x10^6 T cells; first of two values
From the text: as §1

[8] = target: T2, BCMA CAR encoded by circular RNA formed …; experiment: as above
From the text: as §1

[9] = target: T3, CD19-CD28ζ CAR encoded by circular RNA …; experiment: as above
From the text: as §1

[10] = target: T4, BCMA-41BBζ CAR encoded by circular RNA …; experiment: as above
From the text: as §1

[11] = target: T5, BCMA CAR encoded by circular RNA formed …; experiment: as above
From the text: as §1

[12] = target: T6, BCMA CAR encoded by circular RNA formed …; experiment: as above
From the text: as §1

T1 sequence (chain, as listed by the source limits assumed): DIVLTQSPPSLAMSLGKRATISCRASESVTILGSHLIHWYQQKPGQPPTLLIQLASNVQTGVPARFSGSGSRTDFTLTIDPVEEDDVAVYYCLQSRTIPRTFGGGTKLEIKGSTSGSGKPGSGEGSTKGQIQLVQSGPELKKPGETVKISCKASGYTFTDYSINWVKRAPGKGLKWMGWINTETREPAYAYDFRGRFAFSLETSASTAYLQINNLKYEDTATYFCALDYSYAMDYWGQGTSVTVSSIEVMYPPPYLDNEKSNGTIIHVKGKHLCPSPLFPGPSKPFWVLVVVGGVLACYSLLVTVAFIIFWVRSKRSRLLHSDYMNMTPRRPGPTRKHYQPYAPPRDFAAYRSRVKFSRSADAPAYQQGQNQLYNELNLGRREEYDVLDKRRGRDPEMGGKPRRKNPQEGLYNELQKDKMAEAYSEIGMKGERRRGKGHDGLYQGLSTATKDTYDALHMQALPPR

B1: soluble BCMA detection reagent containing R-phycoerythrin (PE) fluorophore (receptor, UniProt Q02223 1-54, looked up)
chain: MLQMAGQCSQNEYFDSLLHACIPCQLRCSSNTPPLTCQRYCNASVTNSVKGTNA
modifications: cysteine pairing not given here; also: conjugated to R-phycoerythrin (PE) fluorophore, site not given here
notes: also called soluble BCMA-PE; sBCMA-PE
Question: B1 was tested. Which gMFI [1] did it give?
Answer: The gMFI was 59700.

Question: What about the gMFI [2] of the same binder?
Answer: Its gMFI is 93400.

Question: What about the gMFI [3] of the same binder?
Answer: Its gMFI is 81.5.

Question: And the gMFI [4]?
Answer: Its gMFI is 66300.

Question: What about the gMFI [5] of the same binder?
Answer: Its gMFI is 58000.

Question: What about the gMFI [6] of the same binder?
Answer: Its gMFI is 18900.

Question: And the gMFI [7]?
Answer: Its gMFI is 57800.

Question: What about the gMFI [8] of the same binder?
Answer: The gMFI was 84700.

Question: And the gMFI [9]?
Answer: The gMFI was 71.7.

Question: What about the gMFI [10] of the same binder?
Answer: Its gMFI is 61500.

Question: What about the gMFI [11] of the same binder?
Answer: Its gMFI is 57400.

Question: What about the gMFI [12] of the same binder?
Answer: The gMFI was 18200.
